T1: POU4F1-s (UniProt Q01851 85-419)
T1 sequence: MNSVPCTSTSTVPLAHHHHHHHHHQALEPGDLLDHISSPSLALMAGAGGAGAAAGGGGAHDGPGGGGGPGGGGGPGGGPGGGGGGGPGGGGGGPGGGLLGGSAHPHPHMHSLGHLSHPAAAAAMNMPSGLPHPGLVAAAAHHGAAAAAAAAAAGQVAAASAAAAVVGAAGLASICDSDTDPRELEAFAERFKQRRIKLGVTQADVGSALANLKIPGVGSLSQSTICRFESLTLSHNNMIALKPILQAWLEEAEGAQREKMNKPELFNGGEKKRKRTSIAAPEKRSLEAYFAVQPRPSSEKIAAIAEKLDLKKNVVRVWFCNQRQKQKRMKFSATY

T2: POU4F2-l (UniProt Q12837 1-409)
T2 sequence: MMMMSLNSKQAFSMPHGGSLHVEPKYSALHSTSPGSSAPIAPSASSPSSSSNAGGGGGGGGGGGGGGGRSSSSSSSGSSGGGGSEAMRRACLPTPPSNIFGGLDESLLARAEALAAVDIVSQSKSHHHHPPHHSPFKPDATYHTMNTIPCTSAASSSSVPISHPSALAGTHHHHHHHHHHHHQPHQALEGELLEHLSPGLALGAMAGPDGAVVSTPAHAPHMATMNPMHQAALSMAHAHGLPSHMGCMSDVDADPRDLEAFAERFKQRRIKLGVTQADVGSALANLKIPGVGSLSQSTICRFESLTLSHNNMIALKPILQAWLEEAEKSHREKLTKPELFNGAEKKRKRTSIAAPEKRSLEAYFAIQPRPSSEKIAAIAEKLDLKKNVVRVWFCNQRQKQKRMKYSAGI

T3: POU4F2-s (UniProt Q12837 98-409)
T3 sequence: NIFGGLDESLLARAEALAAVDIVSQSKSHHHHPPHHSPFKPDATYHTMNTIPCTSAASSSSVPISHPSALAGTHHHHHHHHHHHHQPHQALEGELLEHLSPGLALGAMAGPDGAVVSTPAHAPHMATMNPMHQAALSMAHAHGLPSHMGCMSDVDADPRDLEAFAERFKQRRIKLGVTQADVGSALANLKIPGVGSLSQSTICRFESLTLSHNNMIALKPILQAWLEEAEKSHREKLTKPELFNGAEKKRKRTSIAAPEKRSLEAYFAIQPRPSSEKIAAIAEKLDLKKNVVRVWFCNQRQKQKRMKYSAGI

T4: POU4F3 (UniProt Q15319 1-338)
T4 sequence: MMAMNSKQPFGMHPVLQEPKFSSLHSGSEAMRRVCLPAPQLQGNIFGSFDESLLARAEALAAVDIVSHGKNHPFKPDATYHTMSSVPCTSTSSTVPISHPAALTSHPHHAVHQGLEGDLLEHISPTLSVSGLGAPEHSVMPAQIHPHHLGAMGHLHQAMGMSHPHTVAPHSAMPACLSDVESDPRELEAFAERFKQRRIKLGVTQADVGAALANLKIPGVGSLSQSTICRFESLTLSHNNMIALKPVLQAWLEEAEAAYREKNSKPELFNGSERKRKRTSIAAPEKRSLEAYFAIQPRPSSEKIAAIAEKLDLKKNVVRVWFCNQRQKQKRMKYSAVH

T5: POU4F1-l (UniProt Q01851 1-419)
T5 sequence: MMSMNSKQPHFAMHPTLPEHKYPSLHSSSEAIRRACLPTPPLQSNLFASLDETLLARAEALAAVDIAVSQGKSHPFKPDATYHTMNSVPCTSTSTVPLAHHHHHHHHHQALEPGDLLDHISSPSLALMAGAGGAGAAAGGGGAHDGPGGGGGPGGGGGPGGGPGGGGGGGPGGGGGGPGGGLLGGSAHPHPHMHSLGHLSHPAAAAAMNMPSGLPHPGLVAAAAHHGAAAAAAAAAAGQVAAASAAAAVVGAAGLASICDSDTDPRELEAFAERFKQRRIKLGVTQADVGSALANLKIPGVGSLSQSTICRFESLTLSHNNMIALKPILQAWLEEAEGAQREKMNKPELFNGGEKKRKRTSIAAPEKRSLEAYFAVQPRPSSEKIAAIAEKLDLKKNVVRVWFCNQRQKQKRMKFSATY

B1: Probe 2 (Site 2) (dsDNA)
DNA 1: AGGGTTTTAATTAACTATTCAGTG
DNA 2: CACTGAATAGTTAATTAAAACCCT
B2: Probe 6m (dsDNA)
DNA 1: AGAAATCCTTAGGCCTTGACTTTG
DNA 2: CAAAGTCAAGGCCTAAGGATTTCT
B3: Probe 2m (dsDNA)
DNA 1: AGGGTTTTAAGGCCCTATTCAGTG
DNA 2: CACTGAATAGGGCCTTAAAACCCT
B4: Probe 1m (dsDNA)
DNA 1: AGCTCACGGCCTGAGTTAACAAAG
DNA 2: CTTTGTTAACTCAGGCCGTGAGCT

Assays:
[1] = biological target: T1, POU4F1-s; test: competition EMSA; settings: unlabeled, vs 32P-Probe 2; strongest competitor; 10 mM Tris-Cl pH 7.9, 100 mM KCl, 5 mM MgCl2, 1 mM EDTA, 1 mM DTT, 0.5 mM PMSF, 5% glycerol, 1 ug poly(dI-dC), on ice 30 min; 5% polyacrylamide gel
[2] = biological target: T2, POU4F2-l; test: EMSA; 10 mM Tris-Cl pH 7.9, 100 mM KCl, 5 mM MgCl2, 1 mM EDTA, 1 mM DTT, 0.5 mM PMSF, 5% glycerol, 1 ug poly(dI-dC), on ice 30 min; 5% polyacrylamide gel; settings: protein: ivt
[3] = biological target: T3, POU4F2-s; test: as above; settings: protein: ivt
[4] = biological target: T4, POU4F3; test: as above; settings: protein: ivt
[5] = biological target: T1, POU4F1-s; test: as above; settings: protein: ivt; label: 32P fill-in; overhangs filled in by Klenow
[6] = biological target: T5, POU4F1-l; test: as above; settings: protein: ivt
[7] = overhangs filled in by Klenow when labeled
[8] = label: 32P fill-in, overhangs filled in by Klenow

| Molecule | binding signal (relative binding strength) [1] | binding result [2, 7] | binding result [3, 7] | binding result [4, 7] | binding result [2, 8] | binding result [3, 8] | binding result [5] | binding result [6, 8] | binding result [4, 8] | binding result [6, 7] |
| --- | --- | --- | --- | --- | --- | --- | --- | --- | --- | --- |
| POU4F1 consensus site competitor | 1000 |  |  |  |  |  |  |  |  |  |
| B1 |  | binds | binds | binds |  |  |  |  |  |  |
| B2 |  |  |  |  | no binding | no binding | no binding | no binding | no binding |  |
| B3 |  | no binding | no binding | no binding |  |  |  |  |  | no binding |
| B4 |  |  |  |  | no binding | no binding | no binding | no binding | no binding |  |

Reference: paper PMC3692409, “RIT2, a neuron-specific small guanosine triphosphatase, is expressed in retinal neuronal cells and its promoter is modulated by the POU4 transcription factors”
